Biological target: hGITR ECD hFc (human, UniProt Q9Y5U5 26-161, Thr45Ala)
Assay: SPR

Chain of hGITR ECD hFc (Q9Y5U5 26-161 T45A): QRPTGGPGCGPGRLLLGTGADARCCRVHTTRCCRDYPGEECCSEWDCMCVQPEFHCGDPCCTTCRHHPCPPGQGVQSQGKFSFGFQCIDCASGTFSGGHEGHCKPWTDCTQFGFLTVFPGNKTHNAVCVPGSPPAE

Binder | koff
hab019e2 (antibody, V domains shown) VH: QVQLVESGGGVVQPGRSLRLSCAASGFTFSSYGMHWVRQAPGKGLEWVAVIWYAGSRKFYADSVEGRFTISRDNSKNTLYLQMNSLRAEDTAVYYCARGGSLEGGFFYYGMDVWGQGTTVTVSS VL: not shown | 0.00023 s⁻¹
hab019 (antibody, V domains shown) VH: QVQLVESGGGVVQPGRSLRLSCAASGFTFSSYGMHWVRQAPGKGLEWVAVIWYAGSRKFYADSVEGRFTISRDNSKNTLYLQMSSVRPEDTAVYYCARGGSLDGGFFYYGMDVWGQGTTVTVSS VL: not shown | 0.000205 s⁻¹
hab064 (antibody, V domains shown) VH: QVQLVESGGGVVQPGRSLRLSCAASGFTFSSYGMHWVRQAPGKGLEWVAVIWYETSNKYYADSVKGRFTISRDNSKNTLYLQMNNLRAEDTAVYYCARYGGNSGWYWYFDLWGRGTLVTVSS VL: DIQLTQSPSFLSASVGDRVTITCRASQGISSFLAWYQQKPGTAPKLLIYAASTLQSGVPSRFSGSGSGTEFTLTISSLQPEDFATYCCQQLNSYPFTFGQGTKLEIK | 0.000315 s⁻¹

Second part, the binder after the results:

koff | Binder
0.000684 s⁻¹ | hab076 (antibody, V domains shown) VH: QVQLVESGGGVVQPGRSLRLSCAASGFTFSSYGMHWVRQAPGKGLEWVAVIWYETSNKYYADSVKGRFTISRDNSKNTLYLQMNSLRAEDTAVYYCARYGASSGWYWYFDLWGRGTLVTVSS VL: DIQLTQSPSFLSASVGDRVTITCRASQGISSYLAWYQQKPGKAPKLLIYAASTLQSGVPSRFSGSGSGTEFTLTISSLQPEDFATYCCQQLNSYPFTFGQGTKLEIK
0.000185 s⁻¹ | hab070 (antibody, V domains shown) VH: QVQLVESGGGVVQPGRSLRLSCAASGFTFSSYGMHWVRQAPGKGLEWVAVIWYETSNKFYVDSVKGRFTISRDNSKNTLYLQMNSLRAEDTAVYYCARYGASSGWYWYFDLWGRGTLVTVSS VL: DIQLTQSPSFLSASVGDRVTITCRASQGISSFLAWYQQKPGKAPKLLIYAASTLQSGVPSRFSGSGSGTEFTLTISSLQPEDFATYCCQQLNSYPFTFGQGTKLEIK
0.000381 s⁻¹ | hab070e1 (antibody, V domains shown) VH: QVQLVESGGGVVQPGRSLRLSCAASGFTFSSYGMHWVRQAPGKGLEWVAVIWYETSNKFYVDSVKGRFTISRDNSKNTLYLQMNSLRAEDTAVYYCARYGASSGWYWYFDLWGRGTLVTVSS VL: DIQLTQSPSFLSASVGDRVTITCRASQGISSFLAWYQQKPGKAPKLLIYAASTLQSGVPSRFSGSGSGTEFTLTISSLQPEDFATYYCQQLNSYPFTFGQGTKLEIK
